Legend:
Experiment in all cases: GST pull-down on glutathione-sepharose beads, anti-GFP immunoblot
[1] = target: T1, GST control protein (UniProt P08515 1-218 = GST)
T1 construct: Negative control on glutathione-sepharose beads; also called purified GST
Method: (§1) To examine the binding of p11 to the N-terminus of Naᵥ1.8 in vitro, glutathione-sepharose beads pre-incubated with purified GST, serving as control, or GST-SNS(I) were incubated at 4° C. overnight with GFP-p11 fusion protein or GFP protein extracted from transfected COS cells in PBS. After intensive washing with ice-cold PBS, the bound proteins were denatured in sample buffer (100 mM Tris-HCl pH 6.8, 4% SDS, 0.2% Bromophenol Blue, 20% Glycerol. 200 mM DDT), separated by 10% SDS-PAGE, and transferred to nitrocellulose membrane (Hybond ECL; Amersham Pharmacia Biotech). The membrane was blocked for 1 h in 5% nonfat dry mirnl in PBS-T at room temperature (0.1% Tween-20 in PBS, pH7.4). Primary anti-GFP antibody (Santa Cruz Biotechnology) in 1:800 dilution was applied for 1 hr at room temperature. Secondary antibody (horseradish peroxidase-conjugated sheep anti-mouse IgG, Amersham Pharmacia Biotech) in 1:2000 dilution was applied for 1 hr at room temperature. ECL Western Blotting Detection Reagents (Amersham Pharmacia Biotech) was applied according to the manufacturer's instructions and the blot was exposed to BioMax film (Kodak).
(§2) GFP/p11-1, -2, -3 fusion protein were expressed in COS-7 cells by transient transfection. The COS cell lysates were incubated with affinity-purified GST-SNS(I), the N-terminal domain of Naᵥ1.8 fused to GST, immobilized on glutathione-sepharose beads and were examined by immunoblotting with anti-GFP antibodies.
as §2, with “GFP/p11-1A, p11-2, p11-2-1, and p11-2-2” for “GFP/p11-1, -2, -3”, “proteins” for “protein”, “antibodies. […] These protein fragments correspond to amino acids 1-51, 33-51, 52-77 respectively. GST-SNS(I) efficiently pulled down cell lysate p11-2.” for “antibodies.”

[2] = target: T2, GFP/p11-1 fusion protein (rat)
T2 construct: Used as COS-7 cell lysate; not shown: GFP reporter at the N end and its junction; vector-encoded C-terminal tail after the XbaI site (reverse primer p11-1-3' has no stop codon)
T2 chain: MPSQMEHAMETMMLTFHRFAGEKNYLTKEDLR
Method: as §1, §2
as §2, with “GFP/p11-1A, p11-2, p11-2-1, and p11-2-2” for “GFP/p11-1, -2, -3”, “proteins” for “protein”, “antibodies. […] These protein fragments correspond to amino acids 1-51, 33-51, 52-77 respectively. GST-SNS(I) efficiently pulled down cell lysate p11-2.” for “antibodies.”

[3] = target: T3, GFP/p11-1A fusion protein (rat, UniProt P05943 1-51)
T3 construct: Used as COS-7 cell lysate; not shown: GFP reporter at the N end and its junction; vector-encoded C-terminal tail after the XbaI site (reverse primer p11-2-1R has no stop codon)
T3 sequence: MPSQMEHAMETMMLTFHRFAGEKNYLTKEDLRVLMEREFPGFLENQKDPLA
Method: as §1, §2
as §2, with “GFP/p11-1A, p11-2, p11-2-1, and p11-2-2” for “GFP/p11-1, -2, -3”, “proteins” for “protein”, “antibodies. […] These protein fragments correspond to amino acids 1-51, 33-51, 52-77 respectively. GST-SNS(I) efficiently pulled down cell lysate p11-2.” for “antibodies.”

T1 sequence (P08515 whole entry): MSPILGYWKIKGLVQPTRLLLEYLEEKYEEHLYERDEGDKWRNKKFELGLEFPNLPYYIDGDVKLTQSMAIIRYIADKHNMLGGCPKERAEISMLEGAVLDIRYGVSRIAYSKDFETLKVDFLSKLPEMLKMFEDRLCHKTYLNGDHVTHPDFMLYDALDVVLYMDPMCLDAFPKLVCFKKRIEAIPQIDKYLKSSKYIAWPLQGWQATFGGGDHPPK

B1: GFP-p11 fusion protein (other, not shown: large carriers; small tags and cut ends)
chain: MPSQMEHAMETMMLTFHRFAGEKNYLTKEDLRVLMEREFPGFLENQKDPLAVDKIMKDLDQCRDGKVGFQSFLSLVAGLIIACNDYFVVHMKQKK
notes: Expressed from pBS-GFP/p11 in COS-7 cells and used as cell extract
- binding result [1]: no binding

B2: GST/Nav1.8 N-terminus fusion protein, designated GST-SNS(I) (other)
chain: MELPFASVGTTNFRRFTPESLAEIEKQIAAHRAAKKARTKHRGQEDKGEKPRPQLDLKDCNQLPKFYGELPAELVGEPLEDLDPFYSTHRTFMVLNKSRTISRFSATWALWLFSPFNLIRRTAIKVS
notes: also called GST/SNS(I) fusion protein; not shown: glutathione-S-transferase (GST) as encoded by vector pGEX-5X-1 (Amersham Pharmacia Biotech); species and limits not stat; vector-encoded residues between GST and the EcoRI site of pGEX-5X-1
- binding result [2]: no binding
- binding result [3]: no binding

From patent US20040248207A1 (UNIVERSITY COLLEGE LONDON, published 2004)
